Legend:
Test in all cases: purified protein, by the assay type
[1] = substrate: CC(=O)NCCCCNCCCNC(C)=O; design: steady-state kinetics of acetylpolyamine deacetylation, discontinuous LC-MS after dansyl chloride derivatization
Method: (§1) To study steady-state kinetics with non-fluorogenic peptide substrates and acetylpolyamines, a discontinuous LC–MS was employed based on the protocol of assaying nonfluorogenic acetyllysine peptide substrates for HDAC6 (ref. [17]). Assays were performed in triplicate. Briefly, 5 μl of enzyme (0.050–20 μM) in HEPES buffer (20 mM HEPES (pH 7.5), 100 mM NaCl, 5 mM KCl, 1 mM MgCl2) was added to 35 μl of substrate solution to initiate the reaction. After incubation for 15–60 min at room temperature, the reaction was quenched by addition of 50 μl of 20 mM dansyl chloride dissolved in acetonitrile followed by 10 μl of NaHCO3 (1.6 M, pH 10.0). The deacetylation products were derivatized with dansyl chloride at 50 °C for 2 hrs. The deacetylation products were detected by LC–MS using a Waters SQD equipped with an Acquity UPLC (Waters, Milford, MA, USA) and quantified by using the standard curves generated from the mass signals of the corresponding deacetylated polyamines and peptides. Inhibition of HDAC10 activity was measured by using 0.49 μM zHDAC10 with 192 μM N^8-acetylspermidine. Data were analysed by logistic regression for IC50 determination and the inhibition constant Ki was calculated based on the Cheng-Prusoff equation, Ki=IC50 / (1+[S]/KM)[45]. Assays were performed in triplicate at room temperature. We next tested the PDAC activity of hHDAC10 and zHDAC10 against several polyamine substrates using the LC–MS assay (Fig. 2, Supplementary Fig. 3 and Supplementary Table 1). […] For hHDAC10 and zHDAC10, kcat/KM=2,900±200 and 4,600±300 M^−1 s^−1, respectively; in comparison, N^1-acetylspermidine was a poor substrate with kcat/KM=24±5 and 7±2 M^−1 s^−1, respectively. Substrate specificity trends observed for zHDAC10 and hHDAC10 matched those of the previously reported mammalian N^8-acetylspermidine deacetylase activity. […] As a negative control, we examined the N^8-acetylspermidine deacetylase activity of human and zebrafish HDAC6 (ref. [17]). HDAC6 preferentially catalyses the deacetylation of the peptide substrate RGK(ac)-AMC with a catalytic efficiency >100-fold greater than that for the deacetylation of N^8-acetylspermidine. Therefore, HDAC6 is clearly an acetyllysine deacetylase and HDAC10 is an N^8-acetylspermidine deacetylase. It is notable that the molecular function of HDAC10 coincides with the cellular function of the cytosolic PDAC indicated in Fig. 1a.

[2] = substrate: CC(=O)NCCCCNCCCN; design: steady-state kinetics of acetylpolyamine deacetylation, discontinuous LC-MS after dansyl chloride derivatization
Method: as §1

[3] = substrate: CC(=O)NCCCCCN; design: steady-state kinetics of acetylpolyamine deacetylation, discontinuous LC-MS after dansyl chloride derivatization
Method: as §1

[4] = substrate: CCCCNC(C)=O; design: steady-state kinetics of acetylpolyamine deacetylation, discontinuous LC-MS after dansyl chloride derivatization; settings: 50.0 °C
Method: as §1

[5] = substrate: CC(=O)NCCCCN; design: steady-state kinetics of acetylpolyamine deacetylation, discontinuous LC-MS after dansyl chloride derivatization
Method: as §1

[6] = substrate: CC(=O)NCCCCCCCCN; design: steady-state kinetics of acetylpolyamine deacetylation, discontinuous LC-MS after dansyl chloride derivatization
Method: as §1

[7] = substrate: CC(=O)NCCCC[C@H](NC(=O)[C@H](C)NC(=O)CNC(C)=O)C(=O)Nc1ccc2c(C)cc(=O)oc2c1; design: fluorogenic AMC-conjugated acetyllysine peptide deacetylation, steady-state kinetics
Excerpt: To determine steady-state kinetic parameters for the hydrolysis of a variety of acetylpolyamine and acetyllysine substrates, we prepared full-length recombinant HDAC10 from human (H. sapiens, hHDAC10) and zebrafish (D. rerio, zHDAC10). The CDs of these orthologues are highly similar based on 63%/79% sequence identity/similarity; only full-length constructs yielded soluble proteins. We first assayed the lysine deacetylase activity of these constructs against two commercially available aminomethylcoumarin (AMC)-conjugated fluorogenic acetyllysine peptides, GAK(ac)-AMC and RGK(ac)-AMC (molecular structures of all substrates are shown in Supplementary Fig. 2). […] These measurements were consistent with earlier studies reporting that HDAC10 activity was not measurable using fluorogenic peptide substrates. We also tested activity with 11 non-fluorogenic acetyllysine substrates using a […] chromatography–mass spectrometry (LC–MS)-based discontinuous assay[17] to avoid potential steric clashes that might occur with the bulky AMC group. These substrates included K(ac)NL and GAK(ac)NLQ, which mimic the peptide segment containing K73 in the proposed HDAC10 substrate MutS homologue 2 (MSH2)[22]. Again, we observed no or very low catalytic activity (Fig. 2 and Supplementary Table 1). In comparison with its closest relative, the cytosolic isozyme HDAC6 (ref. [17]), HDAC10 was clearly not an efficient lysine deacetylase.

[8] = substrate: CC(=O)NCCCC[C@H](NC(C)=O)C(N)=O; design: discontinuous LC-MS deacetylation assay, dansylated product quantified, steady-state kinetics; settings: 50.0 °C
Method: (§2) To study steady-state kinetics with non-fluorogenic peptide substrates and acetylpolyamines, a discontinuous LC–MS was employed based on the protocol of assaying nonfluorogenic acetyllysine peptide substrates for HDAC6 (ref. [17]). Assays were performed in triplicate. Briefly, 5 μl of enzyme (0.050–20 μM) in HEPES buffer (20 mM HEPES (pH 7.5), 100 mM NaCl, 5 mM KCl, 1 mM MgCl2) was added to 35 μl of substrate solution to initiate the reaction. […] The deacetylation products were derivatized with dansyl chloride at 50 °C for 2 hrs. The deacetylation products were detected by LC–MS using a Waters SQD equipped with an Acquity UPLC (Waters, Milford, MA, USA) and quantified by using the standard curves generated from the mass signals of the corresponding deacetylated polyamines and peptides. Inhibition of HDAC10 activity was measured by using 0.49 μM zHDAC10 with 192 μM N^8-acetylspermidine. Data were analysed by logistic regression for IC50 determination and the inhibition constant Ki was calculated based on the Cheng-Prusoff equation, Ki=IC50 / (1+[S]/KM)[45]. Assays were performed in triplicate at room temperature.

[9] = substrate: CC(=O)NCCCNCCCCNCCCN; design: steady-state kinetics of acetylpolyamine deacetylation, discontinuous LC-MS after dansyl chloride derivatization
Method: as §1

[10] = substrate: CC(=O)NCCCC[C@H](NC(=O)[C@H](C)NC(C)=O)C(=O)N[C@@H](C)C(N)=O; design: discontinuous LC-MS deacetylation assay, dansylated product quantified, steady-state kinetics; settings: 50.0 °C
Method: as §2

| Protein | kcat ([1]; 50.0 °C) | kcat/Km ([1]; 50.0 °C) | kcat ([2]; 50.0 °C) | kcat/Km ([2]; 50.0 °C) | kcat ([3]; 50.0 °C) | kcat/Km ([3]; 50.0 °C) | kcat ([5]; 50.0 °C) | kcat/Km ([5]; 50.0 °C) | kcat ([6]; 50.0 °C) | kcat/Km ([6]; 50.0 °C) | Km [7] | kcat [7] | kcat/Km [7] | Km [8] | kcat [8] | kcat/Km [8] | other results |
| --- | --- | --- | --- | --- | --- | --- | --- | --- | --- | --- | --- | --- | --- | --- | --- | --- | --- |
| zHDAC10 (Danio rerio) (protein, full-length, residues 2–675) ASGSALIFDEEMSRYKLLWTDPACEIEVPERLTVSYEALRTHGLAQRCKAVPVRQATEQEILLAHSEEYLEAVKQTPGMNVEELMAFSKKYNDVYFHQNIYHCAKLAAGATLQLVDSVMKREVRNGMALVRPPGHHSQRSAANGFCVFNNVAIAALYAKKNYNLNRILIVDWDVHHGQGIQYCFEEDPSVLYFSWHRYEHQSFWPNLPESDYSSVGKGKGSGFNINLPWNKVGMTNSDYLAAFFHVLLPVAYEFDPELVIVSAGFDSAIGDPEGEMCALPEIFAHLTHLLMPLAAGKMCVVLEGGYNLTSLGQSVCQTVHSLLGDPTPRISGLGTACDSALESIQNVRNVQSSYWSSFKHLAQSETNPKRPRLDATNGGPKESSEPASESNPKKTAQDIVWPEPLKRMPASVRTVVVPPPGVELTLPKNCQHSGDISESTAKEVQRIRDKHFHDLTDQNILRSLGNIISVLDRMMRSDEVCNGCVVVSDLSVSVQCALQHALTEPAERVLVVYVGDGELPVKTNDGKVFLVQICTKETEDKCVNRLSLCLREGESLTAGFMQALLGLILPVAYEFNPALVLGIVGETAAKTGLMTVWGHMTCLIQGLARGRTLTLLQGYDKDLLELTVSALSGASISPLGPLRALKPEDVEMMEKQRQRLQERWGLLRCTVSES | 0.48 ± 0.08 s⁻¹ | 2700 ± 300 M⁻¹ s⁻¹ | 0.58 ± 0.03 s⁻¹ | 4600 ± 300 M⁻¹ s⁻¹ | 0.37 ± 0.04 s⁻¹ | 3900 ± 300 M⁻¹ s⁻¹ | 0.7 ± 0.1 s⁻¹ | 4200 ± 900 M⁻¹ s⁻¹ | 0.21 ± 0.02 s⁻¹ | 1200 ± 200 M⁻¹ s⁻¹ | 22 ± 4 µM | 0.00033 ± 2e-05 s⁻¹ | 15 ± 2 M⁻¹ s⁻¹ | 80 ± 10 µM | 0.013 s⁻¹ | 160 M⁻¹ s⁻¹ | Km ([1]; 50.0 °C): 180 ± 40 µM; Km ([2]; 50.0 °C): 130 ± 20 µM; Km ([3]; 50.0 °C): 90 ± 30 µM; Km [4]: 900 ± 200 µM; kcat [4]: 0.06 ± 0.02 s⁻¹; kcat/Km [4]: 60 ± 20 M⁻¹ s⁻¹; Km ([5]; 50.0 °C): 160 ± 50 µM; Km ([6]; 50.0 °C): 170 ± 40 µM |
| hHDAC10 (Homo sapiens) (protein, full-length, residues 2–669, MBP fusion) GTALVYHEDMTATRLLWDDPECEIERPERLTAALDRLRQRGLEQRCLRLSAREASEEELGLVHSPEYVSLVRETQVLGKEELQALSGQFDAIYFHPSTFHCARLAAGAGLQLVDAVLTGAVQNGLALVRPPGHHGQRAAANGFCVFNNVAIAAAHAKQKHGLHRILVVDWDVHHGQGIQYLFEDDPSVLYFSWHRYEHGRFWPFLRESDADAVGRGQGLGFTVNLPWNQVGMGNADYVAAFLHLLLPLAFEFDPELVLVSAGFDSAIGDPEGQMQATPECFAHLTQLLQVLAGGRVCAVLEGGYHLESLAESVCMTVQTLLGDPAPPLSGPMAPCQSALESIQSARAAQAPHWKSLQQQDVTAVPMSPSSHSPEGRPPPLLPGGPVCKAAASAPSSLLDQPCLCPAPSVRTAVALTTPDITLVLPPDVIQQEASALREETEAWARPHESLAREEALTALGKLLYLLDGMLDGQVNSGIAATPASAAAATLDVAVRRGLSHGAQRLLCVALGQLDRPPDLAHDGRSLWLNIRGKEAAALSMFHVSTPLPVMTGGFLSCILGLVLPLAYGFQPDLVLVALGPGHGLQGPHAALLAAMLRGLAGGRVLALLEENSTPQLAGILARVLNGEAPPSLGPSSVASPEDVQALMYLRGQLEPQWKMLQCHPHLVA | 0.14 ± 0.08 s⁻¹ | 900 ± 300 M⁻¹ s⁻¹ | 0.28 ± 0.02 s⁻¹ | 2900 ± 200 M⁻¹ s⁻¹ | 0.14 ± 0.02 s⁻¹ | 1300 ± 200 M⁻¹ s⁻¹ | 0.35 ± 0.04 s⁻¹ | 2100 ± 300 M⁻¹ s⁻¹ | 0.1 ± 0.02 s⁻¹ | 620 ± 50 M⁻¹ s⁻¹ | 10 ± 1 µM | 0.00038 ± 2e-05 s⁻¹ | 38 ± 2 M⁻¹ s⁻¹ | 140 ± 40 µM | 0.0092 ± 0.0008 s⁻¹ | 66 ± 5 M⁻¹ s⁻¹ | Km ([1]; room temperature): 150 ± 90 µM; Km ([2]; room temperature): 100 ± 10 µM; kcat ([9]; 50.0 °C): 0.011 ± 0.002 s⁻¹; kcat/Km ([9]; 50.0 °C): 60 ± 10 M⁻¹ s⁻¹; Km ([9]; room temperature): 180 ± 20 µM; Km ([3]; room temperature): 110 ± 20 µM; Km ([5]; room temperature): 170 ± 50 µM; Km ([6]; room temperature): 160 ± 40 µM; Km [10]: 60 ± 20 µM; kcat [10]: 0.0006 ± 0.0001 s⁻¹; kcat/Km [10]: 11 ± 3 M⁻¹ s⁻¹ |

Source: paper PMC5454378, “Histone deacetylase 10 structure and molecular function as a polyamine deacetylase” (Nature Communications, 2017)
